Data taken from publication PMC11530598 (2024).

Target: T1, MAP1B LC-mScarlet (Mus musculus (Mouse), UniProt P14873)
T1 chain: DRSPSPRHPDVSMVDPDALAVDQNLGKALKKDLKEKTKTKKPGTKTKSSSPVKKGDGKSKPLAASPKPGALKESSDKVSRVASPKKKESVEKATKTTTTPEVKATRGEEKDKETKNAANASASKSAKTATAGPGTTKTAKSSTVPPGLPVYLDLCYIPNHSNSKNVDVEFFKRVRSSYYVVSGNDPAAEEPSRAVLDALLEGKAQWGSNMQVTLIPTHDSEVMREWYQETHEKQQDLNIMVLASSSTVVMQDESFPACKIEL
Assay: TIRF microscopy recruitment assay on microtubules; tested on taxol-stabilised microtubules

B1: sfGFP-MAP1B HC^1-532 (protein)
chain: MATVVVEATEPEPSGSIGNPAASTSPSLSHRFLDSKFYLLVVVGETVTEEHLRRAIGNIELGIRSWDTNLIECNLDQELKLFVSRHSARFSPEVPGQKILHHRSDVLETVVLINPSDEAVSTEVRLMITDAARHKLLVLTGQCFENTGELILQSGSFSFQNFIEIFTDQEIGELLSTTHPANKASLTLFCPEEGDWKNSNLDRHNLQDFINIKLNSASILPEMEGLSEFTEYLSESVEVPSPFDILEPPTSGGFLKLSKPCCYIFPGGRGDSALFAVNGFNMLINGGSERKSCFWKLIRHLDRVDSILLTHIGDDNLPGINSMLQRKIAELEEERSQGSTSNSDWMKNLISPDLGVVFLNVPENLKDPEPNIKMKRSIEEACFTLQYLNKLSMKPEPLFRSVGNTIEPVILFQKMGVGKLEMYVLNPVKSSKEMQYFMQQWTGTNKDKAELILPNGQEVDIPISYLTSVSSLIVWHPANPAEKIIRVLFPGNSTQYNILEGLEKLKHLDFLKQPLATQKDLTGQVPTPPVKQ
B1: no binding.
